{"source": "patent US20230340128A1", "about": "(Xencor, published 2023)", "key": {"human mesothelin (MSLN) [1]": {"target": "T1, human mesothelin (MSLN) (human, UniProt Q13421 296-580, limits assumed)", "T1 construct": "Antigen of the Octet KD values", "experiment": "KD of its MSLN binding domain as quoted in the text"}, "human CD28 [2]": {"target": "T2, human CD28 (human, UniProt P10747 19-152, limits assumed)", "T2 construct": "also called Cluster of Differentiation 28; Tp44", "experiment": "KD of its CD28 binding domain as quoted in the text"}, "human CD28 [3]": {"target": "T2, human CD28", "experiment": "method not stated; Monovalent CD28 KD, table headed 1A7[CD28] H1.14_L1.71 (aka 37 nM)"}, "human mesothelin (MSLN) [4]": {"target": "T1, human mesothelin (MSLN)", "experiment": "KD quoted in the FIG. 25 legend; Octet (BLI) per FIGS. 20-21"}, "CD3": {"target": "T3, CD3", "T3 chain 1": "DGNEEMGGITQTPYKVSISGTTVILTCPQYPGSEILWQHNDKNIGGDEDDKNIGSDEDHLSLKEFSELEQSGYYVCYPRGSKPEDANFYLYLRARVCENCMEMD", "T3 chain 2": "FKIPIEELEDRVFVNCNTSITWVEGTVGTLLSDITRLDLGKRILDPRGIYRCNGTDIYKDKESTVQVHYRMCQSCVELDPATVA", "experiment": "label in the legend box: nominal affinity of the CD3 binding domain; method not stated on the sheet"}, "human mesothelin (MSLN) [5]": {"target": "T1, human mesothelin (MSLN)", "experiment": "KD quoted in the text; Octet (BLI) per FIGS. 20-21"}}, "data": [{"binder": "XENP39553 (bispecific antibody, also called MSLN (0.3 nM) x CD28 (37 nM) 1+1 Fab-scFv-Fc) heavy: QVQLVQSGAEVKKPGASVKVSCKASGYTFTSYWMHWVRQAPGQGLEWMGMIHPNSDNTIYYEKFQGRVTMTVDKSISTAYMELSRLRSDDTAVYYCAIIITPVVPKFDYWGQGTLVTVSSASTKGPSVFPLAPSSKSTSGGTAALGCLVKDYFPEPVTVSWNSGALTSGVHTFPAVLQSSGLYSLSSVVTVPSSSLGTQTYICNVNHKPSDTKVDKKVEPKSCDKTHTCPPCPAPPVAGPSVFLFPPKPKDTLMISRTPEVTCVVVDVKHEDPEVKFNWYVDGVEVHNAKTKPREEEYNSTYRVVSVLTVLHQDWLNGKEYKCKVSNKALPAPIEKTISKAKGQPREPQVYTLPPSREEMTKNQVSLTCDVSGFYPSDIAVEWESDGQPENNYKTTPPVLDSDGSFFLYSKLTVDKSRWEQGDVFSCSVLHEALHSHYTQKSLSLSPGK scFv-Fc: not shown light: DIVMTQSPDSLAVSLGERATINCKASHDVGTSVAWYQQKPGQSPKLLIYWASTRHTGVPDRFTGSGSGTDFTLTISSLQAEDVAVYFCQQYSSYPLTFGAGTKLEIKRTVAAPSVFIFPPSDEQLKSGTASVVCLLNNFYPREAKVQWKVDNALQSGNSQESVTEQDSKDSTYSLSSTLTLSKADYEKHKVYACEVTHQGLSSPVTKSFNRGEC", "values": [{"measurement": "Kd", "setting": "human mesothelin (MSLN) [1]", "value": 0.3, "unit": "nM"}, {"measurement": "Kd", "setting": "human CD28 [2]", "value": 37, "unit": "nM"}, {"measurement": "Kd", "setting": "human CD28 [3]", "value": 60, "unit": "nM"}]}, {"binder": "XENP32947 (bispecific antibody) chain 1: QVQLVQSGAEVKKPGASVKVSCKASGYTFTSYWMHWVRQAPGQGLEWMGWIHPNSDNTIYYEKFQGRVTMTVDKSISTAYMELSRLRSDDTAVYYCAIIITPVVPKFDYWGQGTLVTVSSASTKGPSVFPLAPSSKSTSGGTAALGCLVKDYFPEPVTVSWNSGALTSGVHTFPAVLQSSGLYSLSSVVTVPSSSLGTQTYICNVNHKPSDTKVDKKVEPKSCDKTHTCPPCPAPPVAGPSVFLFPPKPKDTLMISRTPEVTCVVVDVKHEDPEVKFNWYVDGVEVHNAKTKPREEEYNSTYRVVSVLTVLHQDWLNGKEYKCKVSNKALPAPIEKTISKAKGQPREPQVYTLPPSREEMTKNQVSLTCDVSGFYPSDIAVEWESDGQPENNYKTTPPVLDSDGSFFLYSKLTVDKSRWEQGDVFSCSVMHEALHNHYTQKSLSLSPGK chain 2: QVQLVQSGAEVKKPGASVKVSCKASGYTFTSYWMHWVRQAPGQGLEWMGWIHPNSDNTIYYEKFQGRVTMTVDKSISTAYMELSRLRSDDTAVYYCAIIITPVVPKFDYWGQGTLVTVSSASTKGPSVFPLAPSSKSTSGGTAALGCLVKDYFPEPVTVSWNSGALTSGVHTFPAVLQSSGLYSLSSVVTVPSSSLGTQTYICNVNHKPSNTKVDKKVEPKSCGGGGSGGGGSQAVVTQEPSLTVSPGGTVTLTCGSSTGAVTTSNYANWVQQKPGKSPRGLIGGTNKRAPGVPARFSGSLLGGKAALTISGAQPEDEADYYCALWYSNHWVFGGGTKLTVLGKPGSGKPGSGKPGSGKPGSEVQLVESGGGLVQPGGSLRLSCAASGFTFSTYAMNWVRQAPGKGLEWVGRIRSKANNYATYYADSVKGRFTISRDDSKNTLYLQMNSLRAEDTAVYYCVRHGNFGDSYVSWFAYWGQGTLVTVSSGGGGSGGGGSKTHTCPPCPAPPVAGPSVFLFPPKPKDTLMISRTPEVTCVVVDVKHEDPEVKFNWYVDGVEVHNAKTKPREEQYNSTYRVVSVLTVLHQDWLNGKEYKCKVSNKALPAPIEKTISKAKGQPREPQVYTLPPSREQMTKNQVKLTCLVKGFYPSDIAVEWESNGQPENNYKTTPPVLDSDGSFFLYSKLTVDKSRWQQGNVFSCSVMHEALHNHYTQKSLSLSPGK chain 3: DIVMTQSPDSLAVSLGERATINCKASHDVGTSVAWYQQKPGQSPKLLIYWASTRHTGVPDRFTGSGSGTDFTLTISSLQAEDVAVYFCQQYSSYPLTFGAGTKLEIKRTVAAPSVFIFPPSDEQLKSGTASVVCLLNNFYPREAKVQWKVDNALQSGNSQESVTEQDSKDSTYSLSSTLTLSKADYEKHKVYACEVTHQGLSSPVTKSFNRGEC", "values": [{"measurement": "Kd", "setting": "human mesothelin (MSLN) [4]", "value": 9.2, "unit": "nM"}, {"measurement": "Kd", "setting": "CD3", "value": 30, "unit": "nM"}]}, {"binder": "MESO-C H1_L1 (Fab, V domains shown) VH: QVQLVQSGAEVKKPGASVKVSCKASGYTFTSYWMHWVRQAPGQGLEWMGMIHPNSDNTIYYEKFQGRVTMTVDKSISTAYMELSRLRSDDTAVYYCAIIITPVVPKFDYWGQGTLVTVSS VL: DIVMTQSPDSLAVSLGERATINCKASHDVGTSVAWYQQKPGQSPKLLIYWASTRHTGVPDRFTGSGSGTDFTLTISSLQAEDVAVYFCQQYSSYPLTFGAGTKLEIK", "values": [{"measurement": "Kd", "setting": "human mesothelin (MSLN) [5]", "value": 0.3, "unit": "nM"}]}]}
